Measurements taken from article PMC10786891, “Massively parallel profiling of RNA-targeting CRISPR-Cas13d”.
Where a chain is given by its changes, count along the chain named. Names and notes keep the numbering of the source.

T1: EsCas13d, nuclease-dead (Eubacterium siraeum, UniProt B0MS50, R295A;H300A;R849A;H854A)
T1 sequence: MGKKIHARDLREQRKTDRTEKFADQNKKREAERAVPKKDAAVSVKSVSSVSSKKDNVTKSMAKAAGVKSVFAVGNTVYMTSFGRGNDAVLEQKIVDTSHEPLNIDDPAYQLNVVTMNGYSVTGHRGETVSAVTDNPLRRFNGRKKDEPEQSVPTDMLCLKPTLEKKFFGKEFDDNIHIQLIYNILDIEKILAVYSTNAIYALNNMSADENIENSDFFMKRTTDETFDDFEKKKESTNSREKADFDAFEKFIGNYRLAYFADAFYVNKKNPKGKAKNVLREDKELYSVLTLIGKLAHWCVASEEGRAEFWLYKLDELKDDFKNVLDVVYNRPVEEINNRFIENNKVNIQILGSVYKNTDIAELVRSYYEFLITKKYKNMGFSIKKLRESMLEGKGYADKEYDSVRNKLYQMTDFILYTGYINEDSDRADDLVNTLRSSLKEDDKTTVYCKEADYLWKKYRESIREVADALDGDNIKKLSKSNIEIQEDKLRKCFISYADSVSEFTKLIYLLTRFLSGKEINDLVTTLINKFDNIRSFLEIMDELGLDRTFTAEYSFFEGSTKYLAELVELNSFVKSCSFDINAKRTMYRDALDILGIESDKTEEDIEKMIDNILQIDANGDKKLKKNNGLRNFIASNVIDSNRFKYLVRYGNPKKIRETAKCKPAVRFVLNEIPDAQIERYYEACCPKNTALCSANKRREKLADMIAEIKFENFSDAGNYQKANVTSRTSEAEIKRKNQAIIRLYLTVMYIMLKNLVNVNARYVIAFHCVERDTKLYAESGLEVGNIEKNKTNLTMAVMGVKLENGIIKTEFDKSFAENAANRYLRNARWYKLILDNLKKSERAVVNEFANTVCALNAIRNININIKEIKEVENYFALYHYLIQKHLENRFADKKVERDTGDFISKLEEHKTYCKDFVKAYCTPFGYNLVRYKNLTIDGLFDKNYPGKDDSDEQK

B1: target 3 complement block 3-7 (mixed)
RNA 1: CACCCGUGCAAAAUUGCAGGGGUCUAAAACGACCUGAAUAUUUCAGAUCAAA
RNA 2: GGGAAUGGAUCCACAUCUACGAAUUCGUUUUUGAUCUGAAAUAUAGUCCUCUGCAGAUCGGAAGAGCACACGU
B2: target 3 insU 3' of 16,insA 3' of 4 (mixed)
RNA 1: B1 RNA 1
RNA 2: GGGAAUGGAUCCACAUCUACGAAUUCGUUUUUGAUCUUGAAAUAUUCAGAGUCUGCAGAUCGGAAGAGCACACGU
B3: target 3 C6U,U7C (mixed)
RNA 1: B1 RNA 1
RNA 2: B1 RNA 2 with A45C, G46U, U47A, C48G, C49G
B4: target 3 C1U,U8G (mixed)
RNA 1: B1 RNA 1
RNA 2: B1 RNA 2 with U44G, A45U, G46C, U47A, C48G, C49G, C51U
B5: target 3 insA 3' of 6,insU 3' of 6 (mixed)
RNA 1: B1 RNA 1
RNA 2: GGGAAUGGAUCCACAUCUACGAAUUCGUUUUUGAUCUGAAAUAUUCAUAGGUCUGCAGAUCGGAAGAGCACACGU
B6: target 3 G3C,U21G (mixed)
RNA 1: B1 RNA 1
RNA 2: B1 RNA 2 with U31G, A45U, G46C, U47A, C48G
B7: target 3 U20C (mixed)
RNA 1: B1 RNA 1
RNA 2: B1 RNA 2 with U32C, A45U, G46C, U47A, C48G, C49G
B8: target 3 insA 3' of 21,insG 3' of 6 (mixed)
RNA 1: B1 RNA 1
RNA 2: B2 RNA 2 with U32A, G33U, A34G, U35A, C36U, U37C, A48G, G49A, A50G
B9: target 3 del14,del17 (mixed)
RNA 1: B1 RNA 1
RNA 2: GGGAAUGGAUCCACAUCUACGAAUUCGUUUUUGACUAAAUAUUCAGGUCUGCAGAUCGGAAGAGCACACGU
B10: target 3 insA 3' of 8,insA 3' of 7 (mixed)
RNA 1: B1 RNA 1
RNA 2: B5 RNA 2 with U45A, C46U, U48C
B11: target 3 A5G,U7C (mixed)
RNA 1: B1 RNA 1
RNA 2: B1 RNA 2 with A45C, G46C, U47G, C48G, C49G
B12: target 3 G3U,U8G (mixed)
RNA 1: B1 RNA 1
RNA 2: B1 RNA 2 with U44G, A45U, G46C, U47A, C48G, C49U
B13: target 3 insA 3' of 6,insG 3' of 2 (mixed)
RNA 1: B1 RNA 1
RNA 2: B5 RNA 2 with U48A, A49G, G51U, U52G
B14: target 3 insA 3' of 22,insC 3' of 4 (mixed)
RNA 1: B1 RNA 1
RNA 2: B2 RNA 2 with U31A, G33U, A34G, U35A, C36U, U37C, A50C
B15: target 3 C1G,U2G (mixed)
RNA 1: B1 RNA 1
RNA 2: B1 RNA 2 with A45U, G46C, U47A, C48G, C49G, U50G, C51G
B16: target 3 insC 3' of 4,insU 3' of 4 (mixed)
RNA 1: B1 RNA 1
RNA 2: B5 RNA 2 with U48G, A49C, G50U
B17: target 3 C1U,A5C (mixed)
RNA 1: B1 RNA 1
RNA 2: B1 RNA 2 with A45U, G46C, U47C, C48G, C49G, C51U
B18: target 3 U2G,U10A (mixed)
RNA 1: B1 RNA 1
RNA 2: B1 RNA 2 with U42A, A45U, G46C, U47A, C48G, C49G, U50G
B19: target 3 U2C,G4A (mixed)
RNA 1: B1 RNA 1
RNA 2: B1 RNA 2 with A45U, G46C, U47A, C48A, C49G, U50C
B20: target 3 C1G,G4U (mixed)
RNA 1: B1 RNA 1
RNA 2: B1 RNA 2 with A45U, G46C, U47A, C48U, C49G, C51G
B21: target 3 C6U,U22G (mixed)
RNA 1: B1 RNA 1
RNA 2: B1 RNA 2 with U30G, A45U, G46U, U47A, C48G, C49G
B22: target 3 G4C,C6U (mixed)
RNA 1: B1 RNA 1
RNA 2: B1 RNA 2 with A45U, G46U, U47A, C49G
B23: target 3 C1G,G3A (mixed)
RNA 1: B1 RNA 1
RNA 2: B1 RNA 2 with A45U, G46C, U47A, C48G, C49A, C51G
B24: target 3 C1A,G4U (mixed)
RNA 1: B1 RNA 1
RNA 2: B1 RNA 2 with A45U, G46C, U47A, C48U, C49G, C51A
B25: target 1 C6G,G13U (mixed)
RNA 1: CACCCGUGCAAAAAUGCAGGGGUCUAAAACUGAGCGGAUAACCUCUCUAUGG
RNA 2: GGGAAUGGAUCCACAUCUACGAAUUCGUACCAUAGAGAUGUUAUCGGCUCACCGAGAUCGGAAGAGCACACGU
B26: target 1 insU 3' of 17,insA 3' of 4 (mixed)
RNA 1: B25 RNA 1
RNA 2: GGGAAUGGAUCCACAUCUACGAAUUCGUACCAUAGUAGAGGUUAUCCGCAUCACCGAGAUCGGAAGAGCACACGU
B27: target 1 A9G,G12U (mixed)
RNA 1: B25 RNA 1
RNA 2: B25 RNA 2 with U39G, G40U, A43G, G46C
B28: target 1 insU 3' of 21,insG 3' of 2 (mixed)
RNA 1: B25 RNA 1
RNA 2: B26 RNA 2 with A32U, U33A, A34U, G35A, U36G, A50U, U51C, C52G
B29: target 1 insC 3' of 9,insG 3' of 4 (mixed)
RNA 1: B25 RNA 1
RNA 2: B26 RNA 2 with U36A, A37G, G38A, A39G, G41U, U43A, A44C, A50G
B30: target 1 complement block 1-5 (mixed)
RNA 1: B25 RNA 1
RNA 2: B25 RNA 2 with U39G, G46C, G47C, C48G, U49A, C50G, A51U
B31: target 1 C2G,U8C (mixed)
RNA 1: B25 RNA 1
RNA 2: B25 RNA 2 with U39G, U44C, G46C, C50G
B32: target 1 A1C,U3C (mixed)
RNA 1: B25 RNA 1
RNA 2: B25 RNA 2 with U39G, G46C, U49C, A51C
B33: target 1 G15U,A16U (mixed)
RNA 1: B25 RNA 1
RNA 2: B25 RNA 2 with A36U, G37U, U39G, G46C

Each binder was assayed against T1, EsCas13d, nuclease-dead (assay: crRNA (strand 1, pre-loaded); Mg2+; 40 mM Tris-HCl pH 7.5, 150 mM NaCl, 6 mM MgCl2, 1 mM DTT, 0.1% Tween-20, 0.2 mg/ml BSA; 25 C; 10 min per concentration, then washed). Conditions: tags: His6-TwinStrep-SUMO cleaved; N-terminal SNAP kept (SNAP-Surface 488); label: 3' end held by stalled T7 RNA polymerase.

Row | Binder | Kd [nM]
1 | B1 | 74 ± 11
2 | B2 | 90 ± 44.5
3 | B3 | 65.5 ± 15.5
4 | B4 | 64.5 ± 16.5
5 | B5 | 5.3 ± 0.39
6 | B6 | 70.5 ± 24
7 | B7 | 62.5 ± 18
8 | B8 | 48.5 ± 6.5
9 | B9 | 41 ± 7
10 | B10 | 44.5 ± 5.5
11 | B11 | 66.5 ± 11
12 | B12 | 68 ± 10
13 | B13 | 4.05 ± 0.6
14 | B14 | 19.4 ± 4.55
15 | B15 | 12.8 ± 1.6
16 | B16 | 25 ± 3.25
17 | B17 | 60.5 ± 9.5

Row | Binder | Kd [nM]
18 | B18 | 63 ± 16
19 | B19 | 16.9 ± 2.45
20 | B20 | 13.4 ± 1.65
21 | B21 | 51.5 ± 6
22 | B22 | 20.2 ± 1.85
23 | B23 | 80 ± 40
24 | B24 | 17.4 ± 4.35
25 | B25 | 37 ± 5
26 | B26 | 15.3 ± 1.4
27 | B27 | 12.5 ± 0.6
28 | B28 | 26 ± 5
29 | B29 | 7.02 ± 0.26
30 | B30 | 14.3 ± 0.6
31 | B31 | 7.9 ± 0.4
32 | B32 | 18 ± 4
33 | B33 | 15.6 ± 0.7
